Test results reported in the supplement of paper PMC9876800.

Test system: peptide library, one residue held at a place counted from the S/T acceptor
Assay: relative phosphorylation of the sub-library (ratio to the mean residue at this position); higher = residue favoured
Method in brief: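 In 384-well plates, purified recombinant kinases (human or orthologue constructs) were incubated for 90 min under kinase-specific conditions with 50 μM biotinylated degenerate peptide sub-libraries and 50 μM ATP spiked with γ-32P-ATP. Each sub-library fixed a single residue at one position around a central Ser/Thr. Relative sub-library phosphorylation, measured by phosphorimaging and densitometry of streptavidin membrane spots, is given as a ratio to the mean residue at that position.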

Chain of CDK17, construct: Full length, human (Q00537 whole entry, looked up): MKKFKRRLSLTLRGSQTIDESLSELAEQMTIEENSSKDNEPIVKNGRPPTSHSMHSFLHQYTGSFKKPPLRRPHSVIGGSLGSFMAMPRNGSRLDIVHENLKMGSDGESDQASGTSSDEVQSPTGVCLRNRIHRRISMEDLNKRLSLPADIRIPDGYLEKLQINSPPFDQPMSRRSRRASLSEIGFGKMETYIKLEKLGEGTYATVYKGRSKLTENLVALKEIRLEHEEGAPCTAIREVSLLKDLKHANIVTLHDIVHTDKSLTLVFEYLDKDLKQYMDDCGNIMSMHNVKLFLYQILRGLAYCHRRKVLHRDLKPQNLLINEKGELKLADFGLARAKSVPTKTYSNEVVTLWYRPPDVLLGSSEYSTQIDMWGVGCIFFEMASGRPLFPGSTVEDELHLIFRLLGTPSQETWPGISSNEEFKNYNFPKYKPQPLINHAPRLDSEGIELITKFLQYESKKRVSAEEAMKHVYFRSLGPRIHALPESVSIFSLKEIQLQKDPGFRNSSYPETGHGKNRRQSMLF
Chain of CDK19, construct: Full length, human (Q9BWU1 whole entry, looked up): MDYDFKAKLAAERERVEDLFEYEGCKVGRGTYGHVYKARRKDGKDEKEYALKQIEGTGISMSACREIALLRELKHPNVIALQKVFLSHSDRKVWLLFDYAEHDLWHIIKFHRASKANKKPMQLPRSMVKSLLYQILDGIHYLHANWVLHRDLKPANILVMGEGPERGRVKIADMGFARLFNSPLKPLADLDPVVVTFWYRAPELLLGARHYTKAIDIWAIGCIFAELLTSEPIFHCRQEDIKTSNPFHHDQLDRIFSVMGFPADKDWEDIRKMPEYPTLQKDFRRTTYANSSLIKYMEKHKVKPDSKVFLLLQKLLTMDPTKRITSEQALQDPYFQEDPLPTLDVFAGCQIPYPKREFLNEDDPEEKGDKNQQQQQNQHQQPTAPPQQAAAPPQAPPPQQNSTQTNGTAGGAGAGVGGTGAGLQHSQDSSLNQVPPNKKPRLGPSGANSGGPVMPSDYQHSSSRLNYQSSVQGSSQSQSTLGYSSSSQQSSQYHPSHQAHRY

CDK17, construct: Full length, human (from UniProt Q00537)
relative phosphorylation
Conditions	at +1	at +2	at +3	at +4	at -1	at -2	at -3	at -4	at -5
A fixed	0.203	0.683	0.739	1	0.979	1.25	0.977	0.99	1.07
D fixed	0.116	0.603	0.323	0.54	0.654	0.496	0.806	0.95	0.96
E fixed	0.109	0.412	0.294	0.427	0.49	0.585	0.902	1.02	0.845
F fixed	0.152	0.697	0.959	0.828	0.644	0.742	0.666	0.802	0.856
G fixed	0.781	0.865	0.862	1.86	1.93	0.898	1.62	1.19	1.01
H fixed	0.152	1.16	0.66	1.14	0.801	0.831	0.907	0.98	1.18
I fixed	0.157	0.826	1.48	0.823	0.251	0.872	0.68	0.836	0.806
K fixed	0.236	2.09	0.904	1.32	1.61	0.701	0.945	1.34	1.49
L fixed	0.17	1.03	2.01	0.797	0.689	0.962	0.675	0.779	0.98
M fixed	0.17	1.02	1.99	0.99	1.06	1.13	0.881	0.822	0.861
N fixed	0.174	1.15	0.854	0.987	1.03	1	1.21	1.37	1.02
P fixed	13.6	0.758	1.66	0.889	1.69	3.2	2.12	1.41	1.06
Q fixed	0.195	1	0.962	0.962	1.28	0.893	1.03	0.933	0.834
R fixed	0.191	1.92	0.783	1.52	1.51	0.875	1.13	0.924	1.01
V fixed	0.222	0.863	1.07	0.77	0.403	0.859	0.782	0.605	0.698
W fixed	0.181	0.879	0.791	1.09	0.999	0.887	0.855	1.14	1.19
Y fixed	0.149	1.05	0.65	1.06	0.97	0.824	0.818	0.907	1.12
pThr fixed	0.514	0.699	0.939	0.451	0.438	0.909	1.06	1.04	0.832
pTyr fixed	0.707	0.491	0.903	0.492	0.452	0.788	0.883	0.7	0.88

CDK19, construct: Full length, human (from UniProt Q9BWU1)
relative phosphorylation
Conditions	at +1	at +2	at +3	at +4	at -1	at -2	at -3	at -4	at -5
A fixed	0.247	1.28	1.17	0.978	1.14	1.69	1.08	1.05	0.905
D fixed	0.112	0.577	0.659	1.05	0.698	0.518	0.695	0.93	1.26
E fixed	0.114	0.592	0.564	0.915	0.416	0.463	0.881	1.1	1.23
F fixed	0.193	0.915	0.784	0.971	0.947	0.465	1.18	1.22	1.42
G fixed	0.865	1.39	1.39	1.15	1.64	0.829	1.27	1.07	1.02
H fixed	0.295	1.02	1.1	0.988	0.929	0.589	0.958	0.997	1.11
I fixed	0.378	0.721	0.633	0.857	0.238	0.935	0.602	1.01	0.863
K fixed	0.198	1.08	0.651	0.736	0.93	0.276	0.61	0.73	0.702
L fixed	0.271	1.09	0.685	0.948	0.948	1.09	0.67	1.04	0.878
M fixed	0.32	1.22	1.1	1.1	1.5	0.922	1.39	1.07	0.895
N fixed	0.371	0.959	1.33	1.02	0.918	0.658	1.26	0.741	0.879
P fixed	11.8	0.913	2.42	1.28	1.61	5.16	1.39	0.878	0.771
Q fixed	0.314	1.1	0.892	1.01	1	0.846	1.16	0.881	0.801
R fixed	0.186	1.51	0.934	0.919	1.53	0.393	0.674	0.875	0.844
V fixed	0.92	0.725	0.903	0.945	0.425	1.25	0.583	0.786	0.685
W fixed	0.248	1	0.881	1.24	1.01	0.498	1.45	1.34	1.08
Y fixed	0.196	0.925	0.918	0.888	1.11	0.423	1.15	1.28	1.65
pThr fixed	0.381	0.481	0.581	0.829	0.318	0.651	0.695	0.915	0.914
pTyr fixed	0.344	0.83	0.733	0.902	0.505	0.427	0.718	1.03	1.12
